Assay results published in patent US20190271704.

Experiments:
[1] = tested on: T1, NE peptide substrate with acetylated N-terminal CKKK-PEG4 linker and C-terminal pentafluoropropylamine reporter (peptide-PFC)
T1 sequence: CKKKXXXX

[2] = tested on: T2, NE peptide substrate with acetylated N-terminal CKKK-PEG4 linker and C-terminal heptafluorobutylamine reporter (peptide-PFC)
T2 sequence: CKKKXXXX

Row | Substance | PFC release from the peptide substrate (real-time vapor analysis mass spectrometry) [1] | PFC release from the peptide substrate (real-time vapor analysis mass spectrometry) [2]
1 | MMP9 | minimal cleavage by other proteases ... (MMP9 and MMP13 | minimal cleavage by other proteases ... (MMP9 and MMP13
2 | MMP13 | minimal cleavage by other proteases ... (MMP9 and MMP13 | minimal cleavage by other proteases ... (MMP9 and MMP13
